target: T1, HLA-A*02:01 (human); assay: UV peptide-exchange ELISA, exchange yield grade
T1 construct: MHC monomer first loaded with a UV-sensitive peptide that is cleaved by UV light and exchanged for the test peptide; captured on streptavidin plates and detected with anti-b2m; also called peptide-receptive MHC molecules; MHC class I
Excerpt: Candidate peptides for T cell based therapies according to the present invention were further tested for their MHC binding capacity (affinity). The individual peptide-MHC complexes were produced by UV-ligand exchange, where a UV-sensitive peptide is cleaved upon UV-irradiation, and exchanged with the peptide of interest as analyzed. Only peptide candidates that can effectively bind and stabilize the peptide-receptive MHC molecules prevent dissociation of the MHC complexes. To determine the yield of the exchange reaction, an ELISA was performed based on the detection of the light chain (B2m) of stabilized MHC complexes. The assay was performed as generally described in Rodenko et al. (Rodenko et al., 2006).
96 well MAXISorp plates (NUNC) were coated over night with 2 μg/ml streptavidin in PBS at room temperature, washed 4× and blocked for 1 h at 37° C. in 2% BSA containing blocking buffer. Refolded HLA-A*02:01/MLA-001 monomers served as standards, covering the range of 15-500 ng/ml. Peptide-MHC monomers of the UV-exchange reaction were diluted 100 fold in blocking buffer. Samples were incubated for 1h at 37° C., washed four times, incubated with 2 μg/ml HRP conjugated anti-β2m for 1h at 37° C., washed again and detected with TMB solution that is stopped with […]. Absorption was measured at 450 nm. Candidate peptides that show a high exchange yield (preferably higher than 50%, most preferred higher than 75%) are generally preferred for a generation and production of antibodies or fragments thereof, and/or T cell receptors or fragments thereof, as they show sufficient avidity to the MHC molecules and prevent dissociation of the MHC complexes.

| peptide exchange yield | Binder |
| --- | --- |
| ≥ 75% | FILPSSLYL |
| 50 to 75% | FIMEGGAMVL |
| 50 to 75% | LAIVPVNTL |

From patent US20240285738A1 (IMMATICS BIOTECHNOLOGIES, published 2024)
